Reference: patent publication US9708375 (Amgen, dated 2017)

T1: biotin labeled human recombinant Sclerostin (human, UniProt Q9BQB4 24-213)
T1 construct: also called human Sclerostin; huSOST
T1 sequence (looked up): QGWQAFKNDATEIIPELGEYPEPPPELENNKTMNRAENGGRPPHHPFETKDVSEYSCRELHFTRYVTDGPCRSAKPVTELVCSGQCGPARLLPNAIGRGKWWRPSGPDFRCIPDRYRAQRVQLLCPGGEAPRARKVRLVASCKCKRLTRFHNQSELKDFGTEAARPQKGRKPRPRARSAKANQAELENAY


The binders below were run against T1, biotin labeled human recombinant … (assay: AlphaScreen Sclerostin/LRP-6 inhibition).

Binder	binding result
P7080 (bispecific antibody, human IgG2, lambda, also called P7009; Ab-Avimer-7 (P7080A)) light: YVLTQPPSVSVAPGQTARITCGGNNIGSKSVHWYQQKPGQAPVLVVYDDSDRPSEIPERFSGSNSGNTATLTISRVEAGDEADYYCQVWDSSSDHVVFGGGTRLTVLGQPKAAPSVTLFPPSSEELQANKATLVCLISDFYPGAVTVAWKADSSPVKAGVETTTPSKQSNNKYAASSYLSLTPEQWKSHRSYSCQVTHEGSTVEKTVAPTECSSSGGSCPAYTEFLCKDSDRCFPSEWRCDGEMDCVDGSDELHCAYHTCAPNQFRCNSYDKCVPAHWVCDGVLDCLDSSDETNCSAPASEPPGSLSLQ heavy: QVQLVESGGGVVQPGRSLRLSCAASGFTFSRYDMHWVRQAPGKGLEWVAIIFYDGSNKYYADPVKGRFTISRDNSKNTLYLQMNSLRAEDTAVYYCATLAAAFDYWGQGTLVTVSSASTKGPSVFPLAPCSRSTSESTAALGCLVKDYFPEPVTVSWNSGALTSGVHTFPAVLQSSGLYSLSSVVTVPSSNFGTQTYTCNVDHKPSNTKVDKTVERKCCVECPPCPAPPVAGPSVFLFPPKPKDTLMISRTPEVTCVVVDVSHEDPEVQFNWYVDGVEVHNAKTKPREEQFNSTFRVVSVLTVVHQDWLNGKEYKCKVSNKGLPAPIEKTISKTKGQPREPQVYTLPPSREEMTKNQVSLTCLVKGFYPSDIAVEWESNGQPENNYKTTPPMLDSDGSFFLYSKLTVDKSRWQQGNVFSCSVMHEALHNHYTQKSLSLSPGK	binds
P7652 (bispecific antibody, human IgG2, lambda, also called C140162) light: YVLTQPPSVSVAPGQTARITCGGNNIGSKSVHWYQQKPGQAPVLVVYDDSDRPSEIPERFSGSNSGNTATLTISRVEAGDEADYYCQVWDSSSDHVVFGGGTRLTVLGQPKAAPSVTLFPPSSEELQANKATLVCLISDFYPGAVTVAWKADSSPVKAGVETTTPSKQSNNKYAASSYLSLTPEQWKSHRSYSCQVTHEGSTVEKTVAPTECSSSGGSCPAYTEFLCADSDRCFPSEWRCDGEMDCVDGSDELHCAYHTCAPNQFRCNSYDKCVPAHWVCDGVLDCLDSSDETNCSAPASEPPGSLSLQ heavy: QVQLVESGGGVVQPGRSLRLSCAASGFTFSRYDMHWVRQAPGKGLEWVAIIFYDGSNKYYADPVKGRFTISRDNSKNTLYLQMNSLRAEDTAVYYCATLAAAFDYWGQGTLVTVSSASTKGPSVFPLAPCSRSTSESTAALGCLVKDYFPEPVTVSWNSGALTSGVHTFPAVLQSSGLYSLSSVVTVPSSNFGTQTYTCNVDHKPSNTKVDKTVERKCCVECPPCPAPPVAGPSVFLFPPKPKDTLMISRTPEVTCVVVDVSHEDPEVQFNWYVDGVEVHNAKTKPREEQFNSTFRVVSVLTVVHQDWLNGKEYKCKVSNKGLPAPIEKTISKTKGQPREPQVYTLPPSREEMTKNQVSLTCLVKGFYPSDIAVEWESNGQPENNYKTTPPMLDSDGSFFLYSKLTVDKSRWQQGNVFSCSVMHEALHNHYTQKSLSLSPGK	binds
P7068 (bispecific antibody, human IgG2, lambda, also called P7011; Ab-Avimer-1 (P7068A)) heavy: SGGSCPAYTEFLCKDSDRCFPSEWRCDGEMDCVDGSDELHCAYHTCAPNQFRCNSYDKCVPAHWVCDGVLDCLDSSDETNCSAPASEPPGSLSQVQLVESGGGVVQPGRSLRLSCAASGFTFSRYDMHWVRQAPGKGLEWVAIIFYDGSNKYYADPVKGRFTISRDNSKNTLYLQMNSLRAEDTAVYYCATLAAAFDYWGQGTLVTVSSASTKGPSVFPLAPCSRSTSESTAALGCLVKDYFPEPVTVSWNSGALTSGVHTFPAVLQSSGLYSLSSVVTVPSSNFGTQTYTCNVDHKPSNTKVDKTVERKCCVECPPCPAPPVAGPSVFLFPPKPKDTLMISRTPEVTCVVVDVSHEDPEVQFNWYVDGVEVHNAKTKPREEQFNSTFRVVSVLTVVHQDWLNGKEYKCKVSNKGLPAPIEKTISKTKGQPREPQVYTLPPSREEMTKNQVSLTCLVKGFYPSDIAVEWESNGQPENNYKTTPPMLDSDGSFFLYSKLTVDKSRWQQGNVFSCSVMHEALHNHYTQKSLSLSPGK light: YVLTQPPSVSVAPGQTARITCGGNNIGSKSVHWYQQKPGQAPVLVVYDDSDRPSEIPERFSGSNSGNTATLTISRVEAGDEADYYCQVWDSSSDHVVFGGGTRLTVLGQPKAAPSVTLFPPSSEELQANKATLVCLISDFYPGAVTVAWKADSSPVKAGVETTTPSKQSNNKYAASSYLSLTPEQWKSHRSYSCQVTHEGSTVEKTVAPTECS	binds

The next lines start with the values.

binding result	Binder
binds	P7079 (bispecific antibody, human IgG2, lambda, also called P6887; Ab-Avimer-6 (P7079A)) heavy: QVQLVESGGGVVQPGRSLRLSCAASGFTFSRYDMHWVRQAPGKGLEWVAIIFYDGSNKYYADPVKGRFTISRDNSKNTLYLQMNSLRAEDTAVYYCATLAAAFDYWGQGTLVTVSSASTKGPSVFPLAPCSRSTSESTAALGCLVKDYFPEPVTVSWNSGALTSGVHTFPAVLQSSGLYSLSSVVTVPSSNFGTQTYTCNVDHKPSNTKVDKTVERKCCVECPPCPAPPVAGPSVFLFPPKPKDTLMISRTPEVTCVVVDVSHEDPEVQFNWYVDGVEVHNAKTKPREEQFNSTFRVVSVLTVVHQDWLNGKEYKCKVSNKGLPAPIEKTISKTKGQPREPQVYTLPPSREEMTKNQVSLTCLVKGFYPSDIAVEWESNGQPENNYKTTPPMLDSDGSFFLYSKLTVDKSRWQQGNVFSCSVMHEALHNHYTQKSLSLSPGKSSGGSCAPNQFRCNSYDKCVPAHWVCDGVLDCLDSSDETNCSAPASEPPGSLCPAYTEFLCKDSDRCFPSEWRCDGEMDCVDGSDELHCAYHTSLQ light: YVLTQPPSVSVAPGQTARITCGGNNIGSKSVHWYQQKPGQAPVLVVYDDSDRPSEIPERFSGSNSGNTATLTISRVEAGDEADYYCQVWDSSSDHVVFGGGTRLTVLGQPKAAPSVTLFPPSSEELQANKATLVCLISDFYPGAVTVAWKADSSPVKAGVETTTPSKQSNNKYAASSYLSLTPEQWKSHRSYSCQVTHEGSTVEKTVAPTECS
binds	P7653 (bispecific antibody, human IgG2, lambda, also called C140163) heavy: SGGSCPAYTEFLCADSDACFPSEWACDGEMDCVDGSDELHCAYHTCAPNQFACNSYDACVPAHWVCDGVLDCLDSSDETNCSAPASEPPGSLSQVQLVESGGGVVQPGRSLRLSCAASGFTFSRYDMHWVRQAPGKGLEWVAIIFYDGSNKYYADPVKGRFTISRDNSKNTLYLQMNSLRAEDTAVYYCATLAAAFDYWGQGTLVTVSSASTKGPSVFPLAPCSRSTSESTAALGCLVKDYFPEPVTVSWNSGALTSGVHTFPAVLQSSGLYSLSSVVTVPSSNFGTQTYTCNVDHKPSNTKVDKTVERKCCVECPPCPAPPVAGPSVFLFPPKPKDTLMISRTPEVTCVVVDVSHEDPEVQFNWYVDGVEVHNAKTKPREEQFNSTFRVVSVLTVVHQDWLNGKEYKCKVSNKGLPAPIEKTISKTKGQPREPQVYTLPPSREEMTKNQVSLTCLVKGFYPSDIAVEWESNGQPENNYKTTPPMLDSDGSFFLYSKLTVDKSRWQQGNVFSCSVMHEALHNHYTQKSLSLSPGK light: YVLTQPPSVSVAPGQTARITCGGNNIGSKSVHWYQQKPGQAPVLVVYDDSDRPSEIPERFSGSNSGNTATLTISRVEAGDEADYYCQVWDSSSDHVVFGGGTRLTVLGQPKAAPSVTLFPPSSEELQANKATLVCLISDFYPGAVTVAWKADSSPVKAGVETTTPSKQSNNKYAASSYLSLTPEQWKSHRSYSCQVTHEGSTVEKTVAPTECS
